Molecular target: hepatitis B virus (HBV) inoculum (hepatitis B virus)
Test: cell-based or functional assay

B1: HBV#8 Fab (Fab, V domains shown)
VH: EVQLLESGPGLVKPSQTLSLTCAVSGAFMTSDYLYWSWLRQPPGKGPEWIGGIYTTGRSHYNPSLRGRATLSVDTSKNQFSLELNSVTAADTAVYYCARGQYHNWGPSLFDYYNYYYMDVWGKGTTVTVSS
VL: AAELTQSPSSLSASVGDRVTITCRASQDISNYLAWYQQKPGKAPKLLIYSASRLQSGVPSRFSGSGSGTDYTLTLSSLHPEDSATYYCHQYHSAPWTFGQGTKVEIKR
**Q.** What does the source list for B1?
**A.** P/N of HBsAg in cell supernatant (RIA, day 12) at MAb 0.01 µg ml^-1: 82 P/N ratio; P/N of HBsAg in cell supernatant (RIA, day 12) at MAb 0.1 µg ml^-1: 83.3 P/N ratio; P/N of HBsAg in cell supernatant (RIA, day 12) at MAb 1.0 µg ml^-1: 55.8 P/N ratio; P/N of HBsAg in cell supernatant (RIA, day 12) at MAb 10.0 µg ml^-1: 4.1 P/N ratio

Reference: US20110097270A1 (published 2011)
